Source: the supplement of paper PMC9233669
Fewer inactive variants are shown than the library holds.

Legend:
[1] = tested on: biotinyl-Phe-oxazolone; test: self-aminoacylation, catalytic enhancement (BFO) (fold over background); higher = more active; k-Seq, kA / k0A0; sequences stand for … in GGGAAUGGAUCCACAUCUACGAAUUC…UUCACUGCAGACUUGACGAAGCUG
Outline: (§1)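 Working in 50 μL HEPES/NaCl/KCl/MgCl2/CaCl2 buffer with 5% acetonitrile at pH 6.9–7.0, mutagenized RNA pools (0.43 μM; 21-nt variable region) were reacted with 2–1250 μM of each biotinyl-aminoacyl-oxazolone for 90 minutes at room temperature. Streptavidin capture followed, with quantification by triplicate qPCR and Illumina sequencing. Catalytic enhancement is reported as median kA over the uncatalyzed rate, the low-activity peak of a bimodal Gaussian fit to the data.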

[2] = tested on: biotinyl-Ile-oxazolone; test: self-aminoacylation, catalytic enhancement (BIO) (fold over background); higher = more active; k-Seq, kA / k0A0; sequences stand for … in GGGAAUGGAUCCACAUCUACGAAUUC…UUCACUGCAGACUUGACGAAGCUG
Outline: as §1

[3] = tested on: biotinyl-Met-oxazolone; test: self-aminoacylation, catalytic enhancement (BMO) (fold over background); higher = more active; k-Seq, kA / k0A0; sequences stand for … in GGGAAUGGAUCCACAUCUACGAAUUC…UUCACUGCAGACUUGACGAAGCUG
Outline: as §1

[4] = tested on: biotinyl-Val-oxazolone; test: self-aminoacylation, catalytic enhancement (BVO) (fold over background); higher = more active; k-Seq, kA / k0A0; sequences stand for … in GGGAAUGGAUCCACAUCUACGAAUUC…UUCACUGCAGACUUGACGAAGCUG
Outline: as §1

[5] = tested on: biotinyl-Leu-oxazolone; test: self-aminoacylation, catalytic enhancement (BLO) (fold over background); higher = more active; k-Seq, kA / k0A0; sequences stand for … in GGGAAUGGAUCCACAUCUACGAAUUC…UUCACUGCAGACUUGACGAAGCUG
Outline: as §1

[6] = tested on: biotinyl-Trp-oxazolone; test: self-aminoacylation, catalytic enhancement (BWO) (fold over background); higher = more active; k-Seq, kA / k0A0; sequences stand for … in GGGAAUGGAUCCACAUCUACGAAUUC…UUCACUGCAGACUUGACGAAGCUG
Outline: as §1

| Sequence | self-aminoacylation [1] | self-aminoacylation [2] | self-aminoacylation [3] | self-aminoacylation [4] | self-aminoacylation [5] | self-aminoacylation [6] |
| --- | --- | --- | --- | --- | --- | --- |
| CUACUUCCUACAAUCGGUCUG [Fam1A.1 aminoacylation ribozyme variant] | 0.51 | 0.76 | 0.835 | 0.801 | 0.671 | 0.511 |
| CUACUUCGAACAAUAGGUCUG [Fam1A.1 aminoacylation ribozyme variant] | 0.503 | 0.547 | 0.471 | 0.745 | 0.461 | 0.421 |
| CUACUUCGACCAAUCGGUCUG [Fam1A.1 aminoacylation ribozyme variant] | 0.674 | 0.854 | 0.856 | 0.908 | 0.979 | 0.379 |
| CUACUUCGGACAAUCGGUCUG [Fam1A.1 aminoacylation ribozyme variant] | 0.631 | 0.815 | 0.928 | 0.923 | 0.867 | 0.75 |
| CUACUUCUAACAAUCGCUCUG [Fam1A.1 aminoacylation ribozyme variant] | 0.385 | 0.612 | 0.553 | 0.559 | 0.602 | 0.498 |
| CUACUUCUAACAAUCGGUCCG [Fam1A.1 aminoacylation ribozyme variant] | 0.505 | 0.708 | 0.765 | 0.621 | 0.799 | 0.63 |
| CUACUUCUAACAGUCGGUCUG [Fam1A.1 aminoacylation ribozyme variant] | 0.402 | 0.521 | 0.672 | 0.597 | 0.611 | 0.349 |
| CUACUUGAAACAAUCGGACUG [Fam1A.1 aminoacylation ribozyme variant] | 0.551 | 0.922 | 0.782 | 0.786 | 0.944 | 0.651 |
| CUACUUGAAACAAUCGGCCUG [Fam1A.1 aminoacylation ribozyme variant] | 0.788 | 1.84 | 1.96 | 1.68 | 1.45 | 1.38 |
| CUACUUGAAACAAUCGGUCUC [Fam1A.1 aminoacylation ribozyme variant] | 0.658 | 0.789 | 0.827 | 0.688 | 0.657 | 0.561 |
| CUACUUGAAACAAUCGGUUUG [Fam1A.1 aminoacylation ribozyme variant] | 0.458 | 0.907 | 0.938 | 0.77 | 0.89 | 0.944 |
| CUACUUGAAACUAUCGGUCUG [Fam1A.1 aminoacylation ribozyme variant] | 0.599 | 1.03 | 0.986 | 0.975 | 0.941 | 0.685 |
| CUACUUGAAAGAAUCGGUCUG [Fam1A.1 aminoacylation ribozyme variant] | 0.599 | 0.869 | 0.974 | 0.771 | 0.693 | 0.731 |
| CUACUUGAGACAAUCGGUCUG [Fam1A.1 aminoacylation ribozyme variant] | 0.89 | 0.884 | 0.94 | 1.01 | 0.962 | 1.1 |
| CUACUUGUAACAAUCGGUCUG [Fam1A.1 aminoacylation ribozyme variant] | 0.824 | 0.651 | 0.806 | 0.658 | 0.678 | 0.573 |
| CUACUUUAAACAAUCGGGCUG [Fam1A.1 aminoacylation ribozyme variant] | 0.648 | 1.2 | 1.25 | 1.06 | 1.07 | 0.746 |
| CUACUUUAAACAAUCGGUCGG [Fam1A.1 aminoacylation ribozyme variant] | 0.521 | 0.945 | 1.08 | 0.911 | 0.963 | 0.769 |
| CUACUUUAAACAAUCGGUGUG [Fam1A.1 aminoacylation ribozyme variant] | 0.998 | 0.722 | 0.925 | 0.737 | 0.855 | 0.673 |
| CUACUUUAAACAAUCGGUUUG [Fam1A.1 aminoacylation ribozyme variant] | 0.922 | 0.824 | 0.786 | 0.8 | 0.776 | 0.724 |
| CUACUUUAAACGAUCGGUCUG [Fam1A.1 aminoacylation ribozyme variant] | 0.589 | 0.808 | 0.885 | 0.844 | 0.863 | 0.759 |
| CUACUUUAACCAAUCGGUCUG [Fam1A.1 aminoacylation ribozyme variant] | 1.22 | 0.883 | 0.779 | 0.842 | 0.662 | 0.949 |
| CUACUUUAAGCAAUCGGUCUG [Fam1A.1 aminoacylation ribozyme variant] | 0.5 | 0.721 | 0.749 | 0.685 | 0.69 | 0.51 |
| CUACUUUAAUCAAUCGGUCUG [Fam1A.1 aminoacylation ribozyme variant] | 1.43 | 0.955 | 0.892 | 0.915 | 0.78 | 0.755 |
